In US20230357342A1 (published 2023):

T1: IL-18 receptor on HEK-Blue IL18R reporter cells (UniProt Q13478 19-541; O95256 20-599, limits assumed)
T1 sequence (looked up) 1: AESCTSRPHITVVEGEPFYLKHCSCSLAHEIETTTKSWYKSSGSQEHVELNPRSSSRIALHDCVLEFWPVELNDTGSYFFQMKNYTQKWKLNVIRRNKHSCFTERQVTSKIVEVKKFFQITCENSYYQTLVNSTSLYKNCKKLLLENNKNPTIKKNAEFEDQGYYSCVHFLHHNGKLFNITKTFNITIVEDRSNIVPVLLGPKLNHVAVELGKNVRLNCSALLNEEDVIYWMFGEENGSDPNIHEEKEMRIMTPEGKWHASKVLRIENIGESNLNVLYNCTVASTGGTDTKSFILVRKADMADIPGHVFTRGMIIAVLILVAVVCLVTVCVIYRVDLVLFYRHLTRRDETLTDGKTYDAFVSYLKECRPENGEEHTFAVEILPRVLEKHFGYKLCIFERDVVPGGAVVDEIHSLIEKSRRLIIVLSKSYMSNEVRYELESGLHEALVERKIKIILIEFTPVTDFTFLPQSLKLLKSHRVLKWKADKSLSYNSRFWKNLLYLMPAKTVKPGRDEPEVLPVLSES
T1 sequence (looked up) 2: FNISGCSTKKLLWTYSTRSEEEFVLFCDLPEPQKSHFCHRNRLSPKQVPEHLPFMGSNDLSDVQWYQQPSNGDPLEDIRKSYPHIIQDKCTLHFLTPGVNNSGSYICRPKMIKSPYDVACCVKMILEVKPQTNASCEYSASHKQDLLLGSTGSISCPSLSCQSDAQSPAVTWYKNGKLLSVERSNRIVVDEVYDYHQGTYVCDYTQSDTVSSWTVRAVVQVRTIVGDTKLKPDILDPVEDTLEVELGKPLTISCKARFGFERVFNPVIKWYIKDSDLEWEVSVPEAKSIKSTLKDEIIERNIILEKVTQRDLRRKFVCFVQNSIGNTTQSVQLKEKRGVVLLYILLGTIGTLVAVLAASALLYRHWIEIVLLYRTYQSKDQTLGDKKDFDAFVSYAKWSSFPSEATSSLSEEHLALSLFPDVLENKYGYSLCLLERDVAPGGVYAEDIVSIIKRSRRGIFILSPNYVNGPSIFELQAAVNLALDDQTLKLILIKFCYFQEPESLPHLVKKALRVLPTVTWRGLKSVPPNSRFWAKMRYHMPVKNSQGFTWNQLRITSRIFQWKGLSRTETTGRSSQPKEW


biological target: T1, IL-18 receptor on HEK-Blue IL18R …; assay: cell-based or functional assay

Binder	EC50, HEK-Blue IL18R reporter (SEAP) [nM]
modified IL-18 polypeptide SEQ ID NO: 30 (E6K, V11I, C38A, K53A, T63A, C76A, C127A) (ligand) YFGKLKSKLSIIRNLNDQVLFIDQGNRPLFEDMTDSDARDNAPRTIFIISMYADSQPRGMAVAISVKCEKISTLSAENKIISFKEMNPPDNIKDTKSDIIFFQRSVPGHDNKMQFESSSYEGYFLAAEKERDLFKLILKKEDELGDRSIMFTVQNED	0.053
modified IL-18 polypeptide SEQ ID NO: 207 (V11I, C38A, M51G, K53A, C76A, C127A) (ligand) YFGKLESKLSIIRNLNDQVLFIDQGNRPLFEDMTDSDARDNAPRTIFIISGYADSQPRGMAVTISVKCEKISTLSAENKIISFKEMNPPDNIKDTKSDIIFFQRSVPGHDNKMQFESSSYEGYFLAAEKERDLFKLILKKEDELGDRSIMFTVQNED	0.8
modified IL-18 polypeptide SEQ ID NO: 206 (V11I, C38A, K53A, S55A, C76A, C127A) (ligand) YFGKLESKLSIIRNLNDQVLFIDQGNRPLFEDMTDSDARDNAPRTIFIISMYADAQPRGMAVTISVKCEKISTLSAENKIISFKEMNPPDNIKDTKSDIIFFQRSVPGHDNKMQFESSSYEGYFLAAEKERDLFKLILKKEDELGDRSIMFTVQNED	3.63
modified IL-18 polypeptide SEQ ID NO: 204 (V11I, C38A, K53A, C76A, C127A) (ligand) YFGKLESKLSIIRNLNDQVLFIDQGNRPLFEDMTDSDARDNAPRTIFIISMYADSQPRGMAVTISVKCEKISTLSAENKIISFKEMNPPDNIKDTKSDIIFFQRSVPGHDNKMQFESSSYEGYFLAAEKERDLFKLILKKEDELGDRSIMFTVQNED	0.98
modified IL-18 polypeptide SEQ ID NO: 205 (V11I, C38A, K53A, T63A, C76A, C127A) (ligand) YFGKLESKLSIIRNLNDQVLFIDQGNRPLFEDMTDSDARDNAPRTIFIISMYADSQPRGMAVAISVKCEKISTLSAENKIISFKEMNPPDNIKDTKSDIIFFQRSVPGHDNKMQFESSSYEGYFLAAEKERDLFKLILKKEDELGDRSIMFTVQNED	0.17
modified IL-18 polypeptide SEQ ID NO: 61 (E6K, C38A, K53A, C76A) (ligand) YFGKLKSKLSVIRNLNDQVLFIDQGNRPLFEDMTDSDARDNAPRTIFIISMYADSQPRGMAVTISVKCEKISTLSAENKIISFKEMNPPDNIKDTKSDIIFFQRSVPGHDNKMQFESSSYEGYFLACEKERDLFKLILKKEDELGDRSIMFTVQNED	0.084
modified IL-18 polypeptide SEQ ID NO: 62 (E6K, C38A, K53A, C127A) (ligand) YFGKLKSKLSVIRNLNDQVLFIDQGNRPLFEDMTDSDARDNAPRTIFIISMYADSQPRGMAVTISVKCEKISTLSCENKIISFKEMNPPDNIKDTKSDIIFFQRSVPGHDNKMQFESSSYEGYFLAAEKERDLFKLILKKEDELGDRSIMFTVQNED	0.17
modified IL-18 polypeptide SEQ ID NO: 59 (E6K, C38A, K53A) (ligand) YFGKLKSKLSVIRNLNDQVLFIDQGNRPLFEDMTDSDARDNAPRTIFIISMYADSQPRGMAVTISVKCEKISTLSCENKIISFKEMNPPDNIKDTKSDIIFFQRSVPGHDNKMQFESSSYEGYFLACEKERDLFKLILKKEDELGDRSIMFTVQNED	0.268
modified IL-18 polypeptide SEQ ID NO: 63 (E6K, C38A, K53A, C76A, C127A) (ligand) YFGKLKSKLSVIRNLNDQVLFIDQGNRPLFEDMTDSDARDNAPRTIFIISMYADSQPRGMAVTISVKCEKISTLSAENKIISFKEMNPPDNIKDTKSDIIFFQRSVPGHDNKMQFESSSYEGYFLAAEKERDLFKLILKKEDELGDRSIMFTVQNED	0.0139
modified IL-18 polypeptide SEQ ID NO: 60 (E6K, C38Q, K53A) (ligand) YFGKLKSKLSVIRNLNDQVLFIDQGNRPLFEDMTDSDQRDNAPRTIFIISMYADSQPRGMAVTISVKCEKISTLSCENKIISFKEMNPPDNIKDTKSDIIFFQRSVPGHDNKMQFESSSYEGYFLACEKERDLFKLILKKEDELGDRSIMFTVQNED	0.203
